# B1: c-Jun N-terminal protein kinase (JNK), 46 kD form, endogenous kinase from cell extracts, P45983-2 1-384 (enzyme)
# chain: MSRSKRDNNFYSVEIGDSTFTVLKRYQNLKPIGSGAQGIVCAAYDAILERNVAIKKLSRPFQNQTHAKRAYRELVLMKCVNHKNIIGLLNVFTPQKSLEEFQDVYIVMELMDANLCQVIQMELDHERMSYLLYQMLCGIKHLHSAGIIHRDLKPSNIVVKSDCTLKILDFGLARTAGTSFMMTPYVVTRYYRAPEVILGMGYKENVDLWSVGCIMGEMVCHKILFPGRDYIDQWNKVIEQLGTPCPEFMKKLQPTVRTYVENRPKYAGYSFEKLFPDVLFPADSEHNKLKASQARDLLSKMLVIDASKRISVDEALQHPYINVWYDPSEAEAPPPKIPDKQLDEREHTIEEWKELIYKEVMDLEERTKNGVIRGQPSPLAQVQQ
# B2: c-Jun N-terminal protein kinase (JNK), 46 kD form, endogenous kinase from cell extracts (protein)
# chain: B1 chain
# B3: epitope-tagged JNK1 (Flag epitope Asp-Tyr-Lys-Asp-Asp-Asp-Asp-Lys inserted between codons 1 and 2), expressed in COS cells (protein)
# chain: MDYKDDDDKSRSKRDNNFYSVEIGDSTFTVLKRYQNLKPIGSGAQGIVCAAYDAILERNVAIKKLSRPFQNQTHAKRAYRELVLMKCVNHKNIIGLLNVFTPQKSLEEFQDVYIVMELMDANLCQVIQMELDHERMSYLLYQMLCGIKHLHSAGIIHRDLKPSNIVVKSDCTLKILDFGLARTAGTSFMMTPYVVTRYYRAPEVILGMGYKENVDLWSVGCIMGEMVCHKILFPGRDYIDQWNKVIEQLGTPCPEFMKKLQPTVRTYVENRPKYAGYSFEKLFPDVLFPADSEHNKLKASQARDLLSKMLVIDASKRISVDEALQHPYINVWYDPSEAEAPPPKIPDKQLDEREHTIEEWKELIYKEVMDLEERTKNGVIRGQPSPLAQVQQ
# Experiments:
# [1] = molecular target: GAL4-cJun(43-223) (yeast; human), P04386; assay: cell-based or functional assay
# [2] = molecular target: GAL4-cJun(33-223) (yeast; human), P04386; assay: cell-based or functional assay
# [3] = molecular target: GAL4-cJun(56-223) (yeast; human), P04386; assay: cell-based or functional assay
# [4] = molecular target: T1, GSTcJun(33-223), GST fused to c-Jun AA 33-223
# T1 chain: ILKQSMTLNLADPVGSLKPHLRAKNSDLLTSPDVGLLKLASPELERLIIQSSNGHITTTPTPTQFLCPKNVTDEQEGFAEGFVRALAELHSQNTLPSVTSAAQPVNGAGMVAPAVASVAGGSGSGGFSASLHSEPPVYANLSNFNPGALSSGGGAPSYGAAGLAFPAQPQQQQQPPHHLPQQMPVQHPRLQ
# [5] = molecular target: T2, GSTcJun(Ala63/73), GST fused to c-Jun AA 1-223 with Ser 63 and Ser 73 converted to alanines
# T2 chain: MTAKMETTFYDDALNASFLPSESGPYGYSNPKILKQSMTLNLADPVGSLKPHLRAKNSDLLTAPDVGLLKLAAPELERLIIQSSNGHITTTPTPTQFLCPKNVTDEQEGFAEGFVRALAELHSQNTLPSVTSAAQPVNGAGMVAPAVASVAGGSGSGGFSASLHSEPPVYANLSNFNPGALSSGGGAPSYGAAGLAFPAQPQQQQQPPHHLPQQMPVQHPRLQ
# [6] = molecular target: T3, GST-cJun(43-223), GST fused to c-Jun AA 43-223
# T3 chain: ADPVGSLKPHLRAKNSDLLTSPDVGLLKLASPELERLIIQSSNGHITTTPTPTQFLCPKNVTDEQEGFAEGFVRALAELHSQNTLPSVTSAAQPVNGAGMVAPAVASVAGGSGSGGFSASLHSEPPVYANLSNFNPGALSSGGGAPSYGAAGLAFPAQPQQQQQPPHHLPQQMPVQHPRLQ
# [7] = molecular target: GSTvJun, GST fused to the region of v-Jun equivalent to chicken c-Jun AA 1-144 [GST: P08515]
# [8] = molecular target: GSTcJun(wt), glutathione-S-transferase fused to c-Jun AA 1-223 [GST: P08515]
# [9] = molecular target: T4, GST-cJun(1-79), GST fused to c-Jun AA 1-79
# T4 chain: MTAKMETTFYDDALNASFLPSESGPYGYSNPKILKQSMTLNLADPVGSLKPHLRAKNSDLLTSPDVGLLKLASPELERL
# [10] = molecular target: myelin basic protein (MBP)
binder,measurement,setting,value
B1,"Ha-Ras responsiveness, CAT activity of 5xGAL4-Elb-CAT reporter in F9 cells (fold induction)",[1],5.2
same,"UV responsiveness, CAT activity of 5xGAL4-Elb-CAT reporter in F9 cells",[1],1.5 fold
same,"Ha-Ras responsiveness, CAT activity of 5xGAL4-Elb-CAT reporter in F9 cells (fold induction)",[2],9.8
same,"Ha-Ras responsiveness, CAT activity of 5xGAL4-Elb-CAT reporter in F9 cells (fold induction)",[3],5.2
same,"UV responsiveness, CAT activity of 5xGAL4-Elb-CAT reporter in F9 cells",[3],1.5 fold
B2,phosphorylation of the GSTcJun fusion protein by bound kinase,[4],Removal of AA 1-32 decreased phosphorylation of GSTcJun but had only a small effect on kinase binding
same,phosphorylation in solid-phase kinase assay,[5],Phosphorylation of this protein was considerably lower than that of GSTcJun(wt)
B3,"phosphorylation, immunecomplex kinase assay",[6],a deletion of c-Jun NH2-terminal sequences including the d-domain (residues 1-42) caused a marked decrease in phosphorylation by JNK1
same,"phosphorylation, immunecomplex kinase assay",[7],both GST-vJun and myelin basic protein (MBP) are very poor substrates for JNK1
same,"phosphorylation, immunecomplex kinase assay",[8],JNK1 efficiently phosphorylated GST-cJun fusion proteins containing residues 1-223 and 1-79 of c-Jun
same,"phosphorylation, immunecomplex kinase assay",[5],Replacement of Ser-63 and Ser-73 with Ala also decreased the observed phosphorylation
same,"phosphorylation, immunecomplex kinase assay",[9],JNK1 efficiently phosphorylated GST-cJun fusion proteins containing residues 1-223 and 1-79 of c-Jun
same,"phosphorylation, immunecomplex kinase assay",[10],both GST-vJun and myelin basic protein (MBP) are very poor substrates for JNK1
